Data on 4 molecules can be found in patent US8877192B2, “Rage fusion proteins and methods of use” (TransTech Pharma, LLC, priority 2004, dated 2014).

The conditions of data set [1]: listed as human sRAGE; cited from earlier work.
The conditions of data set [2]: cited from earlier work.
In the next data set the target is T1, amyloid-beta (Abeta) (Homo sapiens, UniProt P05067).
T1 construct: Amyloid Beta (1-40) from Biosource; purchased Biosource
The experiment in a line: In vitro ligand binding (ELISA) to immobilized amyloid-beta. Particulars: increasing dilutions of fusion protein; FIG. 7. On the procedure:
(§1) For example, the RAGE fusion protein may be used in a binding assay to identify potential RAGE ligands. In one example embodiment of such a binding assay, a known RAGE ligand may coated onto a solid substrate (e.g., Maxisorb plates) at a concentration of about 5 micrograms per well, where each well contains a total volume of about 100 microliters (μL). The plates may be incubated at 4° C. overnight to allow the ligand to absorb. Alternatively, shorter incubation periods at higher temperature (e.g., room temperature) may be used. […] The fusion protein bound to the immobilized ligand may be detected in a variety of ways. […] The bound complex may be detected by adding the alkaline phosphatase substrate, para-nitrophenylphosphate (PNPP), and measuring conversion of PNPP to para-nitrophenol (PNP) as an increase in absorbance at 405 nm. […] Binding was detected by the addition of an immunodetection complex containing a monoclonal mouse anti-human IgG1 diluted 1:11,000 to a final assay concentration (FAC) of 21 ng/100 μL, a biotinylated goat anti-mouse IgG diluted 1:500, to a FAC of […], and an avidin-linked alkaline phosphatase. […] Binding of the complex to the immobilized fusion protein was quantified by measuring conversion of PNPP to para-nitrophenol (PNP) which was measured spectrophotometrically at 405 nm. […]

The target of a further data set is T2, S100b (S100) (Homo sapiens, UniProt P04271).
T2 sequence (P04271 1-92): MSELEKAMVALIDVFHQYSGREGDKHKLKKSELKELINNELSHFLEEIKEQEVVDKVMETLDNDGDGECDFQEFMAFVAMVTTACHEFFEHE
The experiment in a line: In vitro ligand binding (ELISA) to immobilized S100b. The settings on record: increasing dilutions of fusion protein; FIG. 7. Here is the method:
as §1

Another data set addresses T3, amphoterin (Ampho) (Homo sapiens, UniProt P09429).
T3 sequence (P09429 1-215): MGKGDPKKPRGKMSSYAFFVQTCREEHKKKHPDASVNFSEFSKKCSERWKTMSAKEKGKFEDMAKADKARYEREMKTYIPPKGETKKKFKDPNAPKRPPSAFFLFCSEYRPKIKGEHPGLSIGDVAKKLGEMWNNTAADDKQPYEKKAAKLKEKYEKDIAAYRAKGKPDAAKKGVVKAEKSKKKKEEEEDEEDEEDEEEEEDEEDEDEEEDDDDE
The data set is described as follows: In vitro ligand binding (ELISA) to immobilized amphoterin. The settings on record: increasing dilutions of fusion protein; FIG. 7. On the procedure:
as §1

Data set [3] deals with transgenic mice expressing the human Swedish mutant amyloid precursor protein (APP). The experiment in a line: Mouse model of AD (APP transgenic mice). Particulars: treated for 3 months, versus vehicle and human IgG1. It is filed as in vivo. On the procedure:
Experiments were performed to evaluate whether TTP-4000 could affect amyloid formation and cognitive dysfunction in a mouse model of AD. The experiments utilized transgenic mice expressing the human Swedish mutant amyloid precursor protein (APP) under the control of the PDGF-B chain promoter. Over time, these mice generate high levels of the RAGE ligand, amyloid beta (Aβ).
The APP mice (male) used in this experiment were designed by microinjection of the human APP gene (with the Swedish and London mutations) into mouse eggs under the control of the platelet-derived growth factor B (PDGF-B) chain gene promoter. The mice were generated on a C57BL/6 background and were developed by Molecular Therapeutics Inc. Animals were fed ad libitum and maintained by brother sister mating. The mice generated from this construct develop amyloid deposits starting at 6 months of age. Animals were aged for 6 months and then maintained for 90 days and sacrificed for amyloid quantification.
APP transgenic mice were administered vehicle or TTP4000 every other day [qod (i.p.)] for 90 days starting at 6 months of age. At the end of the experiment, animals were sacrificed and examined for Aβ plaque burden in the brain (i.e., plaque number). A 6-month control APP group was used to determine the baseline of amyloid deposits. In addition, at the end of the study, the animals were subjected to behavioral (Morris water maze) analysis. The investigators were blinded to the study compounds. Samples were given to the mice at 0.25 ml/mouse/every other day.
For histological examination, the animals were anesthetized with an intraperitoneal injection (IP) of sodium pentobarbital (50 mg/kg). The animals were transcardially perfused with 4° C., phosphate-buffered saline (PBS) followed by 4% paraformaldehyde. The brains were removed and placed in 4% paraformaldehyde over night. The brains were processed to paraffin and embedded. Ten serial 30-μm thick sections through the brain were obtained. Sections were subjected to primary antibody overnight at 4° C. (Aβ peptide antibody) in order to detect the amyloid deposits in the brain of the transgenic animals (Guo et al., J. Neurosci., 22:5900-5909 (2002)). Sections were washed in Tris-buffered saline (TBS) and secondary antibody was added and incubated for 1 hour at room temperature. After washing, the sections were incubated as instructed in the Vector ABC Elite kit (Vector Laboratories) and stained with […] (DAB). The reactions were stopped in water and cover-slipped after treatment with xylene. The amyloid area in each section was determined with a computer-assisted image analysis system, consisting of a Power Macintosh computer equipped with a Quick Capture frame grabber card, Hitachi CCD camera mounted on an Olympus microscope and camera stand. NIH Image Analysis Software, v. 1.55 was used. The images were captured and the total area of amyloid was determined over the ten sections. A single operator blinded to treatment status performed all measurements. Summing the amyloid volumes of the sections and dividing by the total number of sections was done to calculate the amyloid volume.
For quantitative analysis, an enzyme-linked immunosorbent assay (ELISA) was used to measure the levels of human total Aβ, Aβtotal and Aβ1-42 in the brains of APP transgenic mice (Biosource International, Camarillo, Calif.). Aβtotal and Aβ1-42 were extracted from mouse brains by guanidine hydrochloride and quantified as described by the manufacturer. […]

Like-named read-outs stand apart in the source and are kept apart here.

T1 sequence (P05067 672-711 limits assumed): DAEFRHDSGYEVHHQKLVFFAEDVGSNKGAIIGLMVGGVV

On to “sRAGE: soluble RAGE: the RAGE protein that does not include the transmembrane region or the cytoplasmic tail”, for which the half-life in plasma result in data set [1] is recorded as “about 2 hours”. In addition, in data set [2] (assessed by retention of immunoreactivity sRAGE), the half-life result is on record as “less than 2 hours”.

B1: rodent sRAGE: rodent soluble RAGE, literature half-life comparator (protein, UniProt Q63495 23-341, looked up)
extracellular domain: GQNITARIGEPLMLSCKGAPKKPTQKLEWKLNTGRTEAWKVLSPQGDPWDSVARILPNGSLLLPAIGIVDEGTFRCRATNRLGKEVKSNYRVRVYQIPGKPEIVNPASELTANVPNKVGTCVSEGSYPAGTLSWHLDGKPLIPDGKGTVVKEETRRHPETGLFTLRSELTVTPAQGGTTPTYSCSFSLGLPRRRPLNTAPIQPRVREPLPPEGIQLLVEPEGGTVAPGGTVTLTCAISAQPPPQIHWIKDGTPLPLAPSPVLLLPEVGHEDEGIYSCVATHPSHGPQESPPVNIRVTETGDEGQAAGSVDGSGLGTLAL
modifications: extracellular domain
notes: rodent soluble RAGE, literature half-life comparator
Turning to B1, the half-life entry in data set [2] (in normal and diabetic rats) is on record as “approximately 20 hours”.

B2: TTP-3000: three domain RAGE fusion protein (SEQ ID NO: 35): human RAGE amino acids 1-136 linked to CH2 and CH3 domains of human IgG (protein)
chain: MAAGTAVGAWVLVLSLWGAVVGAQNITARIGEPLVLKCKGAPKKPPQRLEWKLNTGRTEAWKVLSPQGGGPWDSVARVLPNGSLFLPAVGIQDEGIFRCQAMNRNGKETKSNYRVRVYQIPGKPEIVDSASELTAGPSVFLFPPKPKDTLMISRTPEVTCVVVDVSHEDPEVKFNWYVDGVEVHNAKTKPREEQYNSTYRVVSVLTVLHQDWLNGKEYKCKVSNKALPAPIEKTISKAKGQPREPQVYTLPPSRDELTKNQVSLTCLVKGFYPSDIAVEWESNGQPENNYKTTPPVLDSDGSFFLYSKLTVDKSRWQQGNVFSCSVMHEALHNHYTQKSLSLSPGK
For the molecule B2, the “binding to immobilized amyloid-beta (absorbance at 405 nm)” value with amyloid-beta (Abeta) is recorded as “specifically interact”. In addition, in the data set with S100b (S100), the “binding to immobilized S100b (absorbance at 405 nm)” value was “specifically interact”. In addition, the “binding to immobilized amphoterin (absorbance at 405 nm)” value with amphoterin (Ampho) was “specifically interact”.

B3: mouse sRAGE: mouse soluble RAGE used as comparator in the AD mouse model (protein, UniProt Q62151 23-340, looked up)
extracellular domain: GQNITARIGEPLVLSCKGAPKKPPQQLEWKLNTGRTEAWKVLSPQGGPWDSVARILPNGSLLLPATGIVDEGTFRCRATNRRGKEVKSNYRVRVYQIPGKPEIVDPASELTASVPNKVGTCVSEGSYPAGTLSWHLDGKLLIPDGKETLVKEETRRHPETGLFTLRSELTVIPTQGGTHPTFSCSFSLGLPRRRPLNTAPIQLRVREPGPPEGIQLLVEPEGGIVAPGGTVTLTCAISAQPPPQVHWIKDGAPLPLAPSPVLLLPEVGHEDEGTYSCVATHPSHGPQESPPVSIRVTETGDEGPAEGSVGESGLGTLA
modifications: extracellular domain
notes: mouse soluble RAGE used as comparator in the AD mouse model
As for B3, the “Aβ plaques in the brain” value in data set [3] (FIG. 14A) is listed as “fewer Aβ plaques”. Further, in data set [3] (FIG. 14B), the “cognitive dysfunction (Morris water maze)” value is “less cognitive dysfunction”.
